Target: the molecule itself
Test: native MS

B1: Kir3.2, full-length, human (natural protein, UniProt P48051 1-423, looked up)
chain: MAKLTESMTNVLEGDSMDQDVESPVAIHQPKLPKQARDDLPRHISRDRTKRKIQRYVRKDGKCNVHHGNVRETYRYLTDIFTTLVDLKWRFNLLIFVMVYTVTWLFFGMIWWLIAYIRGDMDHIEDPSWTPCVTNLNGFVSAFLFSIETETTIGYGYRVITDKCPEGIILLLIQSVLGSIVNAFMVGCMFVKISQPKKRAETLVFSTHAVISMRDGKLCLMFRVGDLRNSHIVEASIRAKLIKSKQTSEGEFIPLNQTDINVGYYTGDDRLFLVSPLIISHEINQQSPFWEISKAQLPKEELEIVVILEGMVEATGMTCQARSSYITSEILWGYRFTPVLTLEDGFYEVDYNSFHETYETSTPSLSAKELAELASRAELPLSWSVSSKLNQHAELETEEEEKNLEEQTERNGDVANLENESKV
**Q.** How did the “stoichiometry N” value turn out when B1 was run?
**A.** The value was 4.

— publication PMC9569133 (Biochemistry, 2021)
